Data taken from a protein production outcome set (Wang et al. 2014).

Test: label from the status in PepcDB records
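Also: failed if final PepcDB status was selected cloned or expressed and not failed if soluble or beyond.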

| Sequence | protein production |
| --- | --- |
| MLILLPDFIGHPSCFRGLLARLGATDCRLVDYHRLDAYASIEALASQVLDGLAEEPDWLIGYSFGGLVGYEMARQLPASRLLMIDSHLPWPALRRMPPSEQYQRWLSAEMREWIALMSELGELREEVLLRNVELFGRWQPRHRLARASWVRCRDDAGRDPAAERWCDLIERLDTFPCERPHHLALQDPAVIDFIVHTVSK | failed |
| MRGVRLLAVIGLVLGGLVLSGRPAQAQYAQDSLAFDLEHVFDLEYAADPQISPSGDRVVYARTVMDKMDDRRASRLWAVNADGSGHRPITAPETNASQPRWSPSGDRVAYVASTEGDGAEVFVRWMDTGQTARITQLEESPSGLSWGPEGDRLAFSMFVPAEPEPFARMPSPPEGADWAERPDVIDQTYYRSDGGGYTERGHTQLFVVSASGGTPRQITTGPYDHGGAPTWTPDGETLLISANRHADRRLDPLNTEVYAVDVASGAVTALTTRQGPDGDVALSPDGSTIAYTGFDDREQGYQVTKLYVMDRDGTNARLLTEGFDRDVQNPTFTADGEHIVFRYVDEGSTKIGRVALDGGRRVVAEHVGGTSIGRPYTSGSFSLASNGRVAFTHATPQRPADVAVAQAGREAQVLTALNDDLFGQVDLGSVEQITYESSHDGRTIEGWIVTPPGFDASQEYPLVLEIHGGPFASYGPYFSAEVQLYAAAGYVVLYTNPRGSTSYGQDFGNAIHHDYPGHDYDDLMSGVDAVLERGYVDADRLYVTGGSGGGVLTSWIVGHTDRFRAAVAAKPVINWYSWALTADMYPYGVKYWFPGLPWNHEEHYMDRSPLSYVDNVTTPTMLLTGANDYRTPMSESEQFYQALKLREVETALVRVPGASHSIAARPSHLAAKAAHVLEWFRRHGGPTPEQ | failed |
| MSSNMQQTINVWDPLIRIFHWSLVGFFTLAYLTEGEDEWMNIHSYAGYSILTLLVFRLLWGVIGTHHARFNHFITRPSIAWTYLKQLFSGNAKDYIGHNPAGALMIIALITSIAVAGFSGMALYATDSQGPLATSFFATWPEGALKEVHEFFANFSLFLIATHIGGVIVSSLLHKENLIRAMVTGKKQRPLIQQDERQ | failed |
| MNAEHAVTLRAPAADWERSEREARQAAAYVAAFVGVPAVVAAAAALALFALTALVLLAPLVACVLTWAAWRYGRPERRGARRA | failed |
| MTTPRPEYPRPHFDRSHSWLTLNGTWDFRADPAEAYSADASDGYDRAITVPFAWETPASGIAEHWLRTAWYRRTFTVPADWAGQRVVLHFGAVHHAATVWVNGTEVAHHEGGYTPFAADVTDALGDGEHQLTVRVHAPADKRDIAHGKQRSMPRDDYDGVCFTPSSGIWQSVWLEARPATHLAALRLRPNDDLTGITVEAVVHGPAADRAELRLRVRDEDTAVTATLDPDGRLATELPLSAPRLWSPEDPHLYHVDAELTSADGTDRVAAYTGLRTVTVDGESLYLNGRRLFVRGVLDQGYWPETGITAPDDAALRRDIELAAEAGYNLVRKHLKLEDPRFAHHADTLGMLLWAEPASPGRFSPASTAAFAEQIEPMVERDGNSPAIVIWGLYNEEWGLDWDIPGDPAKQRATADAYDRLKALDPTRPVVDNSGWTHVKTDLLDWHYYDESAASWATTVADLLSGERDDFPVKLGPDFVVRKKLAVPGQPLRGLPNLNSEYGGGFTGLDRAWHLRWQTQELRRHDRLAGYVYTELYDIEHESAGLLDFGRGAKDLAGVDPAHANAPTTLVLDVTPVAPGRDLLTTGPDFTVDVHVSHHGDDPVAGTVHTTWTPVYARTPDAPGDAVPGCRAEAKPYVLGAAVTVPAALPDGWTSGRLHLALVVDGTVAARTALDVDTRTDPYIGDDPQARPTA | failed |
| MNKQVIVRSACLALFVGLAGGCATGPGGGSIYVPVGSDDRRSAPEPPRTNIPDEQDEQVWRKSEQPTVTEPDSPSTRAPSYSESGDQLPAAALTLVRDADQRLRQGDSAGAIARLERAQRIAPRSSEVYFKLAEAYVAGDNLGAAEQFTLKGLSLAGNDERMQRSGWLLLADIRRARGNVAGADQAEARAAAL | failed |
| VAYLGPAGTFTEEALYKFADAGVFGDGEIEQLPAKSPQEAVDAVRHGTAQFAVVAIENFVDGPVTPTFDALDQGSNVQIIAEEELDIAFSIMVRPGTSLADVKTLATHPVGYQQVKNWMATTIPDAMYLSASSNGAGAQMVAEGTADAAAAPSRAAELFGLERLVDDVADVRGARTRFVAVQAQAA | failed |
| MEDLVTAPTPLDKRWLTEAVRLREEHAGPLEDQEANRHARQLGGDLATRIETRALFLAERDDMTGALRHWKQGARLALLALLLMAVLSGTGLGLAALGDGQRPVNVFWALGSLLGLNLLMLLGWGMGFALSGEHGAGLGRLWLWLSERFARDAKAAHLAPALLVLLQRQRLNRWLLGLLVHGLWLLAMLTALGMLLVLLATRRYGFVWETTLLAADPFIHLTQALGALPSLLGFAVPDEAMIRASGDSLPALDVARQAWASWLLGVVLVYGLLPRLLLAGLCLWRWRQGRERLTLDLGLPGYAQLREALMPRSERIGVQDAAPQALPQFAAGQLESGSSGALLVGLELDDQRPWPPALPKSVTDAGVLDSRESRNRLLEQLSRFPPARLAIACDPRRSPDRGSLALLAELARNAGATRIWLLQAAPGQPLDAERLGDWHEALDRLGLQHADTSPLTWLEHGHD | failed |
| MEKRFYILTIVVEDREKAYRQVNELLHNFSEDILLRVGYPVREENMAIIFLVLKTDNDTIGALSGKLGQISGVRVKTVPLKR | not failed |
| MSDVTGDLAAVSEAKGGSDAARISEVKAWLTSQFEAVGKEVPNFEYTHRSITHLYNLATASQAKSQAATIVANDFRLKASEYRAQAARIREILESAGMSQESLPSNVVSSAQVLANVANLLNIRDTELSRILAQLEDDVVPCESQMENWKTNLEVMAVKEEQYIQQYKKYEMLLNRVGYTPKISHRELVEMAEHRKELDKMTKPVLDTLRSYQDLPPDKALAALAIEDKKRQFTAAEKYLEEVLQSALETNDE | failed |
| MKHEWRKFEKELYGVKAKPIFLEVEEQRFITIKGKGNPNDQDFSNRVSALYALAYGIKMAYKQAMKTEQDDRAVTDFAVYPLEGLWQQAKDAKEDTLEKDKLSYTIMIRQPEFITKELVDQALDRVKIKKPNSFYESISFESIKDGKCIQVLHIGSYDDEPQSFAKMDAFAKEHGLKRSSDIHREIYLSNAQRTEKSKLKTILRYQVEEK | failed |
| MKKAKSRIAILGTGGTIAGFIDSTIATTGYAAGAIDIDVLIKAVPQIRDLADISWEQIANIDSSNMCDEIWLRLAKKIAKLFAEGIDGVVITHGTDTMEETAYFLNLTIKSDKPVVLVGAMRPSTAISADGPKNLYNAVALVVNKEAKNKGVMVAINDKILSARGVVKTHSLNVDAFSSPDFGDLGYIVDGKVFFYNNVIKAHTKNAPFDVSKLTSLPKVDILYSYSNDGSGVAAKALFEHGTKGIVVAGSGAGSIHKNQKDVLKELLKKGLKVVVSSRVVAGCVAVSDSDEKLGFISAEDLNPQKARVLLMLALTKTSDPKKIQEYFLKY | not failed |
| MLLSVIITAQGRKGYVMQAVRSVLSQNIPKEDFEIIVSKDFKDDVIDEFLDGRAIVLNENHIRSGSRVASAVLQSSGKILVFLDDDDLFYPGKLREVKIVFSEMGVDYFKNSVKPVAESGDTVSYYQPAIKSDIFVKEPNEQDIRKLLKLRAGFNSSSISLKKDILVGYLDVLSKINLAVDSFYFFLYMSHSRPIYYSKKTLSLYRVLSKSTSRDVRNINAYAEFKSKFYELYSRDFETISEMASDGPCSKLAKTEFHLQMAYKWIFNTYRKEERPRMLHTLASSIYSHDPFIALPWPSFMKKIVQRREYFREKKLLSENTELEHHHHHH | failed |
| MNPENWLLLRRVVRFGDTDAAGVMHFHQLFRWCHESWEESLESYGLNPADIFPGSRKSEVTPEVALPIIHCQADFRRPIHTGDALAMELRPERLNPNSFQVHFEFRCEEQIAAHALIRHLAINAQTRHRCALPEGIDRWLEASGVGKIGSI | not failed |
| MVSGKVLKEPASGFMFMDTLDRGVKGYAGGWLVRGKRYNCIVETGAGAAVPLWLAGLKQAGIPLESIRWILLTHVHLDHAGGAGELLRHLPNARIGIHPLGVRHILDPQRLLSHAKVVWEKDFDLLGPMLPAPAERVVELGDGEIIEIDDVRRIKVLYTPGHTSHHVAFFEESTRGVFSGDALGAFFRGKHPFGEYVSMPGVSPPKGDIPAYVQSVERIAKLSPRRIYATHFGLWEPAMPYILSATSQIITISDLCRDVFYGGGGLQDFLSRAATLLASVRQSTRGQVELEKNYFSMAKAVWNYVVAEKGGESSPG | failed |
| AIAKETEQVSEAPHGLEGAWLDLTNRVRVSGDTVEACSAFSIGPPRCRWLLQATDRGVNCAALDHYVPHICGTHTETVYHIAHHRYIKRAVCEIPFFRFHKARIQVCTAKIACTEQVLPSADTDYPCLEPNDLIVGPSALNRAPRYTRAQDSTIEALILIVVGPDGTSDWRDGKLDDRPPYLTPAAIESLATRYPNMRHLLTNLPSVDRRRDGGLVRSHRAFFATDFAGDGTPSESPQKTITELLRVPPDWQLYDDAEGVVCISLAPIEGLDAIPSSVYFKSH | failed |
| MLAKVLKKRGAVLRGDFVLSSGRRSSVYIDMRRLLGDESSYSVALDLLLEVGGQDLARSSAVIGVATGGLPWAAMLALRLSKPLGYVRPERKGHGTLSQVEGDPPKGRVVVVDDVATTGTSIAKSIEVLRSNGYTVGTALVLVDRGEGAGELLARMGVRLVSVATLKTILEKLGWGGE | not failed |
| MTTNRETVLSMAKRKRSVVAINASGWRSNGEVMGLQIKDGVLYKDYDAAGYTGAEACVFFDDGTMKVYGNREVDADILISKGARNSFAFGIWLVKDSKPRTAQMTTWADLNVKHPRQAIGQRSDGTLVIITVDGRSLRSSGITAYDMPSLFLSEGCINAFLLDGGGSSQTAVEGKYINNISDGIERAVVDTLTISYPDDLEHHHHHH | failed |
| MKPRGICFFDMDGTLLNSESKVLDTSLQALDKLRENNVIPVIATGRTLIEISHQMKITGIESAVMMNGQMAIFEGEKVYEDVIDADLLDRLTEEAKSQNVEVCYYNDKRIGATASTPVVKAHYDFLGEPMPKVRPNMYKEETINMALLLLETGDDYFPERFPELQFVRNTPFSNDVLRKGGSKAVGISKLLEVMGYQDVPTYAFGDGMNDLEMFGAVDYAIAMENAVPLLKEKADFVTKDNNSDGIMLGLKQFDLI | failed |
| MNNQFSQRVSDIIVYSKEEANRLRSRHIGPEHLLLGMLRDGEGKAIEILSKLNTNLAAVKQQIEARLKTEADDMLLPDAEIPLSNDAAKILKMCILEARGMKSNIADTEHVLLAILRERNNMAASVLEANDVNYVKVLEQATLQPD | failed |
| MSVDPMTYEAQFFGFTPQTCMLRIYIAFQDYLFEVMQAVEQVILKKLDGIPDCDISPVQIRKCTEKFLCFMKGHFDNLFSKMEQLFLQLILRIPSNILLPEDKCKETPYSEEDFQHLQKEIEQLQEKYKTELCTKQALLAELEEQKIVQAKLKQTLTFFDELHNVGRDHGTSDFRESLVSLVQNSRKLQNIRDNVEKESKRLKIS | failed |
| IPSDGLTIPYGSGPKPIFRAQVGKKVYQSLINQATESVYITTPYLIIDYDLTETIKNAAMRGVDVRIITPYIPDKKFIQLVTRGAYPDLLSAGVRIYEYSPGFIHSKQMLVDEDFAVVGTINLDYRSLVHHYENAVLLYKTPSIREIARDFRNIFADSQEVYPHSIKTSWYQKLVKEIAQLFAPIL | failed |
| MSLIIQVSPAGSMDLLSQLEVERLKKTASSDLYQLYRNCSLAVLNSGSHTDNSKELLDKYKNFDITVMRRERGIKLELANPPEHAFVDGQIIKGIQEHLFSVLRDIVYVNMHLADSQRLNLTNATHITNLVFGILRNAGALIPGATPNLVVCWGGHSINEVEYQYTREVGHELGLRELNICTGCGPGAMEGPMKGAAVGHAKQRYSEYRYLGLTEPSIIAAEPPNPIVNELVIMPDIEKRLEAFVRMAHGIIIFPGGPGTAEELLYILGIMMHPENADQPMPIVLTGPKQSEAYFRSLDKFITDTLGEAARKHYSIAIDNPAEAARIMSNAMPLVRQHRKDKEDAYSFNWSLKIEPEFQLPFEPNHESMANLDLHLNQRPEVLAANLRRAFSGVVAGNVKAEGIREIERHGPFEMHGDPVLMKKMDQLLNDFVAQNRMKLPGGSAYEPCYKIVTEGHHHHHH | not failed |
